Earlier results on four substances are cited in publication PMC3981547.

Like-named read-outs stand apart in the source and are kept apart here.

Some targets named below: IL-2Rβ (Homo sapiens) (UniProt P14784); γc (Homo sapiens) (UniProt P31785); IL-2Rβ/γc (Homo sapiens) (UniProt P14784); IL-2Rα (Homo sapiens) (UniProt P01589).
Series [1] concerns the target IL-13Rα1 (Homo sapiens) (UniProt P78552).
Series [2] addresses IL-4Rα ECD (Homo sapiens) (UniProt P24394). As to the kind of experiment: ITC. For orientation: Isothermal titration calorimetry measures the heat released or taken up as one component is titrated into another.
Series [3] addresses IL-13Rα1 (Homo sapiens) (UniProt P78552). The source holds these as a separate data set.

UniProt P78552, sequence (P78552 22-343): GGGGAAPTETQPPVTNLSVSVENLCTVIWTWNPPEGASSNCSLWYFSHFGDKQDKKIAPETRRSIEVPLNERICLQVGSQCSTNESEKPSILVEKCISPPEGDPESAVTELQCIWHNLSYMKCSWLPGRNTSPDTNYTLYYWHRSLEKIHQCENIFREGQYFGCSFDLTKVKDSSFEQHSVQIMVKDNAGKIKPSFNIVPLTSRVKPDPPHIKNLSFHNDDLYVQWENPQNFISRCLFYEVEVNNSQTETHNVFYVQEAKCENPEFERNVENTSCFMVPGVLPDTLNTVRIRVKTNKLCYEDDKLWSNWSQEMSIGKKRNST
UniProt P01589, sequence (P01589 22-240): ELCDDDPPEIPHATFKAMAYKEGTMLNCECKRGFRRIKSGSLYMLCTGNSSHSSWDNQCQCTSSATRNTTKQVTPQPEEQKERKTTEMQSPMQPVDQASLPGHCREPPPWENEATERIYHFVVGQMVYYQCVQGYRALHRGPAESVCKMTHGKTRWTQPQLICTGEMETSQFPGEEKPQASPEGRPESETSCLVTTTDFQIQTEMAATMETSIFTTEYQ
UniProt P24394, sequence (P24394 26-232): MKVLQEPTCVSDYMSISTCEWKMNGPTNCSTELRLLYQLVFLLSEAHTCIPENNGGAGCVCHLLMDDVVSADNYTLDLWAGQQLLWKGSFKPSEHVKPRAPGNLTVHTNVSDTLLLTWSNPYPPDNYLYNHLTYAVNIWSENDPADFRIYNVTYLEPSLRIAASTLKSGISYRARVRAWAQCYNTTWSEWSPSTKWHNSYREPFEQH
UniProt P31785, sequence (P31785 23-262): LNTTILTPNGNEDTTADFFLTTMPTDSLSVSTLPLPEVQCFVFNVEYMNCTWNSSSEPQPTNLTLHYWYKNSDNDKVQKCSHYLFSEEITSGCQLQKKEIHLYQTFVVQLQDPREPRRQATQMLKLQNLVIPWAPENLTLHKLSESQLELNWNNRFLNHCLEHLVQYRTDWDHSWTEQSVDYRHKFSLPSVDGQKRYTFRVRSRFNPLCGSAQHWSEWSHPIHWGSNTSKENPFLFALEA

The Kd is the constant that tells how readily two partners part at equilibrium. Turning to IL-13 (from UniProt P35225), in the series with IL-13Rα1 (Homo sapiens) [1], the Kd is 30 nM.

Turning to IL-4 (from UniProt P05112), in series [2], the Kd is 1 nM.

Turning to IL-2 (from UniProt P60568), the Kd in the series with IL-2Rβ (Homo sapiens) was 100 nM; in the series with γc (Homo sapiens) it was 700000 nM; in the series with IL-2Rβ/γc (Homo sapiens), 1 nM; in the series with IL-2Rα (Homo sapiens), 10 nM.

With IL-4/IL-4Rα (from UniProt P05112), the Kd with IL-13Rα1 (Homo sapiens) [3] was 487 nM.
